B1: GLP-1 derivative of Example 26 (Chem. 45), N^eps26,N^eps37-diacylated [Imp^7,Aib^8,Arg^34,Lys^37]-GLP-1-(7-37)-peptide (peptide)
peptide: XXEGTFTSDVSSYLEGQAAKEFIAWLVRGRK
modifications: Imp (imidazopropionyl, des-amino histidine) at 7; Aib at 8; eps-amino of Lys26 and Lys37 each acylated with 12-(4-carboxyphenoxy)dodecanoyl-gGlu-Ser-Ser-Gly-Ser-Ser-Gly
B2: Comparative compound of Example 4a: Compound of Example 46, Chem. 65, in WO 2011/080103 (peptide)
peptide: HAEGTFTSDVSSYLEGQAAK([AEEA-AEEA-γGlu-Decanoyl(10-(4-HOOC-PhO))])EFIAWLVRGRK([AEEA-AEEA-γGlu-Decanoyl(10-(4-HOOC-PhO))])E
B3: GLP-1 derivative of Example 4 (Chem. 23), N^eps26,N^eps37-diacylated [Arg^34,Lys^37]-GLP-1-(7-37)-peptidyl-Glu (peptide)
peptide: HAEGTFTSDVSSYLEGQAAK([Gly-Ser-Ser-Gly-Ser-Ser-γGlu-Decanoyl(10-(4-HOOC-PhO))])EFIAWLVRGRK([Gly-Ser-Ser-Gly-Ser-Ser-γGlu-Decanoyl(10-(4-HOOC-PhO))])E
B4: GLP-1 derivative of Example 5 (Chem. 24), N^eps18,N^eps26-diacylated [Lys^18,Glu^22,Gln^34]-GLP-1-(7-37)-peptide (peptide)
peptide: HAEGTFTSDVSK([Gly-Ser-Ser-Gly-Ser-Ser-γGlu-Decanoyl(10-(4-HOOC-PhO))])YLEEQAAK([Gly-Ser-Ser-Gly-Ser-Ser-γGlu-Decanoyl(10-(4-HOOC-PhO))])EFIAWLVQGRG
B5: Comparative compound of Example 3a: Compound of Example 33, Chem. 52, in WO 2011/080103 (peptide)
peptide: HAEGTFTSDVSSYLEGQAAK([AEEA-AEEA-γGlu-Decanoyl(10-(4-HOOC-PhO))])EFIAHLVQGRK([AEEA-AEEA-γGlu-Decanoyl(10-(4-HOOC-PhO))])

*1 amine or outer side, *2 acyl side, *3 side chain or, on linkers, in order; H or OH if unused. Where no end group is shown, it is not given here. Side-chain parts run from the residue outwards. The star is where a group is joined. Decanoyl(10-(4-HOOC-PhO)) = O=C(O)c1ccc(OCCCCCCCCCC(=O)*)cc1; γGlu = O=C(O)[C@H](CCC(=O)[*:2])N[*:1]; AEEA = NCCOCCOCC(=O)O

For the first assay, the target named is T1, human GLP-1 receptor (human, UniProt P43220 24-463). Kind of assay: cell-based or functional assay.
As to B1, the “In vitro potency (AlphaScreen cAMP; membranes) EC50” value is 446 pM.
Same read-out and setting: the same measure for B2: 101 pM.
On the same count and under the same terms, as for B3, the figure is 48 pM.
Same read-out and setting: as for B4, the figure is 95 pM.
As for B5, the “In vitro potency (AlphaScreen cAMP; membranes) EC50” value amounted to 506 pM.

In the next assay the target is T1, human GLP-1 receptor. Kind of assay: SPA, displacement of 125I-GLP-1(7-36)NH2, BHK membranes, 0.001% HSA. On the procedure: Test compounds, membranes, SPA-particles and [¹²⁵I] ]-GLP-1(7-36)NH₂ were diluted in assay buffer. 50 ul (micro liter) buffer (“low albumin” experiment containing 0.001% HSA) was added to Optiplate, and 25 ul of test compounds were added. 5-10 μg membrane protein/sample was added (50 μl) corresponding to 0.1-0.2 mg protein/ml (to be preferably optimised for each membrane preparation). SPA-particles (Wheatgerm agglutinin SPA beads, Perkin Elmer, #RPNQ0001) were added in an amount of 0.5 mg/well (50 μl). The incubation was started with [¹²⁵I]-GLP-1]-(7-36)NH₂ (final concentration 0.06 nM corresponding to 49.880 DPM, 25 μl). The plates were sealed with PlateSealer and incubated for 120 minutes at 30° C. while shaking. The plates were centrifuged (1500 rpm, 10 min) and counted in Topcounter.
The IC₅₀ value was read from the curve as the concentration which displaces 50% of ¹²⁵I-GLP-1 from the receptor.
In general, IC50 refers to the concentration needed to halve the response being measured. A high value points to weaker potency in that assay. In turn, B1 registered an IC50 of 0.53 nM. This lies in the sub-nanomolar range.
Still for that read-out and setting: the same measure for B2: 2.77 nM; for B3: 0.58 nM; for B4: 1.63 nM.
Still for that read-out and setting: the same measure for B5: 51.5 nM.

For a further assay, the target named is T1, human GLP-1 receptor. The experiment in a line: cell-based or functional assay. This is another data set of the same source.
With B1, the “In vitro potency (CRE-luciferase) low albumin EC50” value was determined as 5.8 pM.
The same measure, in the same setting: as for B2, the figure is 40 pM.
Still for that read-out and setting: the same measure for B3: 8 pM; for B4: 5.3 pM.
In the case of B5, the “In vitro potency (CRE-luciferase) low albumin EC50” value was determined as 124 pM.
